System: human HL60 cells
Assay: SWATH-MS proteomics, differential protein representation, akirin2 KO vs WT HL60 cells
Assay type: cell-based
Conditions: akirin2 KO vs WT HL60 cells
Procedure, shortened: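 Differential representation compares akirin2 KO with WT HL60 across three biological replicates, 5 µg digest each, acquired by data-independent SWATH on a 120-min gradient. Library built from combined IDA runs searched with Paragon; proteins accepted at 1% FDR, with total-area-sum normalization.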

[1] = SWATH-MS, under-represented in KO
[2] = sheet "Under-represented in KO"

| Molecule | Fold Change [1] | Log (Fold Change) [1] | Fold Change [2] | Log (Fold Change) [2] |
| --- | --- | --- | --- | --- |
| sp¦P48449¦LSS_HUMAN (protein, UniProt P48449 2-732, looked up) Lanosterol synthase: TEGTCLRRRGGPYKTEPATDLGRWRLNCERGRQTWTYLQDERAGREQTGLEAYALGLDTKNYFKDLPKAHTAFEGALNGMTFYVGLQAEDGHWTGDYGGPLFLLPGLLITCHVARIPLPAGYREEIVRYLRSVQLPDGGWGLHIEDKSTVFGTALNYVSLRILGVGPDDPDLVRARNILHKKGGAVAIPSWGKFWLAVLNVYSWEGLNTLFPEMWLFPDWAPAHPSTLWCHCRQVYLPMSYCYAVRLSAAEDPLVQSLRQELYVEDFASIDWLAQRNNVAPDELYTPHSWLLRVVYALLNLYEHHHSAHLRQRAVQKLYEHIVADDRFTKSISIGPISKTINMLVRWYVDGPASTAFQEHVSRIPDYLWMGLDGMKMQGTNGSQIWDTAFAIQALLEAGGHHRPEFSSCLQKAHEFLRLSQVPDNPPDYQKYYRQMRKGGFSFSTLDCGWIVSDCTAEALKAVLLLQEKCPHVTEHIPRERLCDAVAVLLNMRNPDGGFATYETKRGGHLLELLNPSEVFGDIMIDYTYVECTSAVMQALKYFHKRFPEHRAAEIRETLTQGLEFCRRQQRADGSWEGSWGVCFTYGTWFGLEAFACMGQTYRDGTACAEVSRACDFLLSRQMADGGWGEDFESCEERRYLQSAQSQIHNTCWAMMGLMAVRHPDIEAQERGVRCLLEKQLPNGDWPQENIAGVFNKSCAISYTSYRNIFPIWALGRFSQLYPERALAGHP | 0.7416 | -0.1298 |  |  |
| sp¦O15173¦PGRC2_HUMAN (protein, UniProt O15173 1-223, looked up) Membrane-associated …: MAAGDGDVKLGTLGSGSESSNDGGSESPGDAGAAAEGGGWAAAALALLTGGGEMLLNVALVALVLLGAYRLWVRWGRRGLGAGAGAGEESPATSLPRMKKRDFSLEQLRQYDGSRNPRILLAVNGKVFDVTKGSKFYGPAGPYGIFAGRDASRGLATFCLDKDALRDEYDDLSDLNAVQMESVREWEMQFKEKYDYVGRLLKPGEEPSEYTDEEDTKDHNKQD | 0.7369 | -0.1326 |  |  |
| sp¦O14776¦TCRG1_HUMAN (protein, UniProt O14776 1-1098, looked up) Transcription elongation …: MAERGGDGGESERFNPGELRMAQQQALRFRGPAPPPNAVMRGPPPLMRPPPPFGMMRGPPPPPRPPFGRPPFDPNMPPMPPPGGIPPPMGPPHLQRPPFMPPPMSSMPPPPGMMFPPGMPPVTAPGTPALPPTEEIWVENKTPDGKVYYYNARTRESAWTKPDGVKVIQQSELTPMLAAQAQVQAQAQAQAQAQAQAQAQAQAQAQAQAQAQAQAQAQAQAQAQAQAQAQAQAQAQAQAQAQVQAQVQAQVQAQAVGASTPTTSSPAPAVSTSTSSSTPSSTTSTTTTATSVAQTVSTPTTQDQTPSSAVSVATPTVSVSTPAPTATPVQTVPQPHPQTLPPAVPHSVPQPTTAIPAFPPVMVPPFRVPLPGMPIPLPGVAMMQIVSCPYVKTVATTKTGVLPGMAPPIVPMIHPQVAIAASPATLAGATAVSEWTEYKTADGKTYYYNNRTLESTWEKPQELKEKEKLEEKIKEPIKEPSEEPLPMETEEEDPKEEPIKEIKEEPKEEEMTEEEKAAQKAKPVATAPIPGTPWCVVWTGDERVFFYNPTTRLSMWDRPDDLIGRADVDKIIQEPPHKKGMEELKKLRHPTPTMLSIQKWQFSMSAIKEEQELMEEINEDEPVKAKKRKRDDNKDIDSEKEAAMEAEIKAARERAIVPLEARMKQFKDMLLERGVSAFSTWEKELHKIVFDPRYLLLNPKERKQVFDQYVKTRAEEERREKKNKIMQAKEDFKKMMEEAKFNPRATFSEFAAKHAKDSRFKAIEKMKDREALFNEFVAAARKKEKEDSKTRGEKIKSDFFELLSNHHLDSQSRWSKVKDKVESDPRYKAVDSSSMREDLFKQYIEKIAKNLDSEKEKELERQARIEASLREREREVQKARSEQTKEIDREREQHKREEAIQNFKALLSDMVRSSDVSWSDTRRTLRKDHRWESGSLLEREEKEKLFNEHIEALTKKKREHFRQLLDETSAITLTSTWKEVKKIIKEDPRCIKFSSSDRKKQREFEEYIRDKYITAKADFRTLLKETKFITYRSKKLIQESDQHLKDVEKILQNDKRYLVLDCVPEERRKLIVAYVDDLDRRGPPPPPTASEPTRRSTK | 0.7373 | -0.1323 |  |  |
| sp¦Q15758¦AAAT_HUMAN (protein, UniProt Q15758 1-541, looked up) Neutral amino acid …: MVADPPRDSKGLAAAEPTANGGLALASIEDQGAAAGGYCGSRDQVRRCLRANLLVLLTVVAVVAGVALGLGVSGAGGALALGPERLSAFVFPGELLLRLLRMIILPLVVCSLIGGAASLDPGALGRLGAWALLFFLVTTLLASALGVGLALALQPGAASAAINASVGAAGSAENAPSKEVLDSFLDLARNIFPSNLVSAAFRSYSTTYEERNITGTRVKVPVGQEVEGMNILGLVVFAIVFGVALRKLGPEGELLIRFFNSFNEATMVLVSWIMWYAPVGIMFLVAGKIVEMEDVGLLFARLGKYILCCLLGHAIHGLLVLPLIYFLFTRKNPYRFLWGIVTPLATAFGTSSSSATLPLMMKCVEENNGVAKHISRFILPIGATVNMDGAALFQCVAAVFIAQLSQQSLDFVKIITILVTATASSVGAAGIPAGGVLTLAIILEAVNLPVDHISLILAVDWLVDRSCTVLNVEGDALGAGLLQNYVDRTESRSTEPELIQVKSELPLDPLPVPTEEGNPLLKHYRGPAGDATVASEKESVM |  |  | 0.3333 | -0.4771 |
| sp¦P49916¦DNLI3_HUMAN (protein, UniProt P49916 43-1009, looked up) DNA ligase 3: LLHGHPLFLRRKPVLSFQGSHLRSRATYLVFLPGLHVGLCSGPCEMAEQRFCVDYAKRGTAGCKKCKEKIVKGVCRIGKVVPNPFSESGGDMKEWYHIKCMFEKLERARATTKKIEDLTELEGWEELEDNEKEQITQHIADLSSKAAGTPKKKAVVQAKLTTTGQVTSPVKGASFVTSTNPRKFSGFSAKPNNSGEAPSSPTPKRSLSSSKCDPRHKDCLLREFRKLCAMVADNPSYNTKTQIIQDFLRKGSAGDGFHGDVYLTVKLLLPGVIKTVYNLNDKQIVKLFSRIFNCNPDDMARDLEQGDVSETIRVFFEQSKSFPPAAKSLLTIQEVDEFLLRLSKLTKEDEQQQALQDIASRCTANDLKCIIRLIKHDLKMNSGAKHVLDALDPNAYEAFKASRNLQDVVERVLHNAQEVEKEPGQRRALSVQASLMTPVQPMLAEACKSVEYAMKKCPNGMFSEIKYDGERVQVHKNGDHFSYFSRSLKPVLPHKVAHFKDYIPQAFPGGHSMILDSEVLLIDNKTGKPLPFGTLGVHKKAAFQDANVCLFVFDCIYFNDVSLMDRPLCERRKFLHDNMVEIPNRIMFSEMKRVTKALDLADMITRVIQEGLEGLVLKDVKGTYEPGKRHWLKVKKDYLNEGAMADTADLVVLGAFYGQGSKGGMMSIFLMGCYDPGSQKWCTVTKCAGGHDDATLARLQNELDMVKISKDPSKIPSWLKVNKIYYPDFIVPDPKKAAVWEITGAEFSKSEAHTADGISIRFPRCTRIRDDKDWKSATNLPQLKELYQLSKEKADFTVVAGDEGSSTTGGSSEENKGPSGSAVSRKAPSKPSASTKKAEGKLSNSNSKDGNMQTAKPSAMKVGEKLATKSSPVKVGEKRKAADETLCQTKVLLDIFTGVRLYLPPSTPDFSRLRRYFVAFDGDLVQEFDMTSATHVLGSRDKNPAAQQVSPEWIWACIRKRRLVAPC | 0.7417 | -0.1297 |  |  |

Source: PMC8298264, “Function of cofactor Akirin2 in the regulation of gene expression in model human neutrophil-like HL60 cells” (Bioscience Reports, 2021)
